Laboratory results published in patent US20230227537A1 (VIB VZW, published 2023).
“And” between values parts separate entries of the source, which are not always exact repeats. Identical values can stand only once. Like-named read-outs stand apart in the source and are kept apart here.

Columns and labels:
[1] = biological target: T1, WT SARS-CoV-2 RBD displayed on Saccharomyces cerevisiae (SARS-CoV-2, UniProt P0DTC2 331-518); assay: flow cytometry, yeast cells displaying WT RBD
[2] = biological target: T1, WT SARS-CoV-2 RBD displayed on …
[3] = biological target: SARS-CoV-2 RBD protein Avi-tag biotinylated (AcroBiosystems SPD-C82E9) (SARS-CoV-2, UniProt P0DTC2 330-518); assay: competition AlphaLISA; competitor human ACE2-mFc
[4] = biological target: T2, BSA (Bos taurus, UniProt P02769); assay: ELISA on coated BSA, anti-VHH-HRP, OD450 [lower graph]
T2 construct: coated on the ELISA plate; also called negative control antigen

[5] = biological target: T3, Mouse IgG1 Fc fused SARS-CoV-2 RBD (Sino Biological) (SARS-CoV-2; mouse, UniProt P0DTC2 330-518); assay: ELISA on coated SARS-CoV-2 RBD-muFc, anti-VHH-HRP, OD450 [lower graph]
[6] = biological target: T2, BSA; assay: ELISA on coated BSA, anti-VHH-HRP, OD450 [upper graph]
[7] = biological target: T3, Mouse IgG1 Fc fused SARS-CoV-2 RBD …; assay: ELISA on coated SARS-CoV-2 RBD-muFc, anti-VHH-HRP, OD450 [upper graph]
[8] = biological target: T3, Mouse IgG1 Fc fused SARS-CoV-2 RBD …; assay: BLI, RBD-mFc on AMC tips, global 1:1 fit
[9] = biological target: SARS-CoV-2 spike, full length, on cells or on pseudotyped/authentic virus (SARS-CoV-2, UniProt P0DTC2 14-1273); assay: cell-based or functional assay
[10] = biological target: T3, Mouse IgG1 Fc fused SARS-CoV-2 RBD …
[11] = biological target: T3, Mouse IgG1 Fc fused SARS-CoV-2 RBD …; remark: listed apart in the source

T2 sequence (P02769 25-607 limits assumed): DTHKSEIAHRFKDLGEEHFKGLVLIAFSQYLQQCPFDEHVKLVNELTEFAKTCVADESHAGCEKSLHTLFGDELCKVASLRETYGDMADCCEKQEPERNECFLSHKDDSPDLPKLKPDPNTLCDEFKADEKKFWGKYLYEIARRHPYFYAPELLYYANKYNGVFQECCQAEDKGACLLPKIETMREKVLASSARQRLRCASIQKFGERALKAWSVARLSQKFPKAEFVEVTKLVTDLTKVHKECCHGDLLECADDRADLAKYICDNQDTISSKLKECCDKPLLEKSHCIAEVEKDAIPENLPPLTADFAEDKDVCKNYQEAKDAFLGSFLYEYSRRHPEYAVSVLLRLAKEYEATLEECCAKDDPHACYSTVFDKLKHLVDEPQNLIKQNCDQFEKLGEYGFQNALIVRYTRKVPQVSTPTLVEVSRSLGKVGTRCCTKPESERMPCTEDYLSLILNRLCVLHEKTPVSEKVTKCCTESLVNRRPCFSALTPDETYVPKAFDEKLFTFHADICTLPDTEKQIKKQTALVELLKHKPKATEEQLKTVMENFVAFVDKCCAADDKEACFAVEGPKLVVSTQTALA

B1: VHH3.83 (VHH)
VHH: QVQLQESGGGLVQPGDSLRLSCVLSGGVFTSYAMGWFRQAPGKEREFLAAITFNSDATYYADSVKGRFTISRDNAKNTAYLQMNSLKPNDTAVYSCAAGGNHYNPQYYHDYDKYDHWGQGTQVTVSS
concentration at which binding was just below saturation [1]: 10 ng/mL
EC50 (read off the curve) [2]: ~3 ng/mL
% inhibition [3]: 74%
IC50 [3]: 0.46 nM

B2: VHH3.77 (VHH)
VHH: QVQLQESGGGLVQAGGSLRLSCVSSGRAFGNGAVGWFRQGPGRPREFVATVSWNGGGTYFAESVRGRFTISRDNAKNTVYLQMNNLKPEDTAVYYCALAGEGTVVSEWDYDYEYWGQGTQVTVSS
binding result [4]: no binding (tested: about 20 µg/ml)
EC50 (read off the curve) [5]: ~0.03 µg/mL
% inhibition [3]: 97%
IC50 [3]: 0.723 nM

B3: VHH3BE4 (VHH)
VHH: QVQLQESGGGLVQAGGSLRLSCVASGRAFGNGAVGWFRQAPGREREFVATVSWNGGGTYYAESVRGRFTISRDNAKSTVYLQMNSLKPEDTAVYYCASAGEGTVVSEWDYDYDYWGQGTQVTVSS
% inhibition [3]: 100%
IC50 [3]: 0.634 nM

B4: VHH3.144 (VHH)
VHH: QVQLQESGGGLVQAGGSLRLSCVASGRAFGNGAVGWFRQAPGREREFVATVSWNGGGTYYAESVRGRFTISRDNAKSTVYLQMNSLKPEDTAVYYCASAGEGTVVSEWDYDYDYWGQGTQVTVSS
binding result [4]: no binding (tested: about 20 µg/ml)
% inhibition [3]: 100%
IC50 [3]: 1.12 nM

B5: VHH3.17 (VHH)
VHH: QVQLQESGGGLVEAGGSLTLSCAASGRAFGDGAVGWFRQGPGRPREFVATVSWNGGGTYFAESVRGRFTISRDNAKNTVYLQMNNLKPEDTAVYYCALAGEGTVVSEWDYDYEYWGQGTQVTVSS
binding result [6]: no binding (tested: about 20 µg/ml)
EC50 (read off the curve) [7]: ~0.05 µg/mL
% inhibition [3]: 99%
IC50 [3]: 1.03 nM

B6: D72-13: VHH72-h1_(G4S)3-VHH72-h1_GS_hIgG1hinge-hIgG1Fc (Fc fusion)
chain: EVQLVESGGGLVQPGGSLRLSCAASGRTFSEYAMGWFRQAPGKEREFVATISWSGGSTYYTDSVKGRFTISRDNAKNTVYLQMNSLRPEDTAVYYCAAAGLGTVVSEWDYDYDYWGQGTLVTVSSGGGGSGGGGSGGGGSEVQLVESGGGLVQPGGSLRLSCAASGRTFSEYAMGWFRQAPGKEREFVATISWSGGSTYYTDSVKGRFTISRDNAKNTVYLQMNSLRPEDTAVYYCAAAGLGTVVSEWDYDYDYWGQGTLVTVSSGS
notes: ExpiCHO; tetravalent
Kd [8]: < 0.001 nM
koff [8]: < 1e-07 s⁻¹
kon [8]: 2.65e+06 M⁻¹ s⁻¹
PRNT50, authentic SARS-CoV-2 [9]: 0.1 µg/mL

B7: VHH3.149 (VHH)
VHH: QVQLQESGGGLVQAGGSLKLSCAASGRTFSSYALGWFRQAPGTEREFVSAINWFGAPTYYADSVKGRFTISRDNAKNTVYLQMDNLKPEDTAVYYCAADSKGWDPQDMDYWGKGTQVTVSS
binding result [4]: no binding (tested: about 20 µg/ml)
EC50 (read off the curve) [5]: ~0.006 µg/mL
% inhibition [3]: 98%
IC50 [3]: 0.902 nM

B8: VHH3.36 (VHH)
VHH: QVQLQESGGGLVQAGDSLRLSCVVSGGTFSSYAMGWFRQAPGKERELVAAINWGGISVYYADSVKGRFTISRDNAENTVYLQMNSLKPEDTAVYYCAADPKGWSEWDMEYWGKGTQVTVSS
binding result [6]: no binding (tested: about 20 µg/ml)
EC50 (read off the curve) [7]: ~0.05 µg/mL
% inhibition [3]: 100%
IC50 [3]: 0.562 nM

B9: VHH3.38 (VHH)
VHH: QVQLQESGGGLVQAGGSLRLSCAASGGTFNNYAMAWFRQAPGQERELVAAMFWSGLPKYYADSVKGRFTISTDDAKNTVYLQMNGLKPEDTAVYYCAADSRGWSDVGGMDYWGKGTQVTVSS
concentration at which binding was just below saturation [1]: 10 ng/mL
EC50 (read off the curve) [2]: ~1 ng/mL
binding result [6]: no binding (tested: about 20 µg/ml)
EC50 (read off the curve) [7]: ~0.04 µg/mL
% inhibition [3]: 99%
IC50 [3]: 2.01 nM

B10: VHH72 - hIgG1.Hinge-hIgG1.Fc (Fc fusion)
VHH-Fc chain: QVQLQESGGGLVQAGGSLRLSCAASGRTFSEYAMGWFRQAPGKEREFVATISWSGGSTYYTDSVKGRFTISRDNAKNTVYLQMNSLKPDDTAVYYCAAAGLGTVVSEWDYDYDYWGQGTQVTVSS
Kd [10]: 0.0874 nM and 0.0895 nM
koff [10]: 0.000252 s⁻¹ and 0.000288 s⁻¹
kon [10]: 2.88e+06 M⁻¹ s⁻¹ and 3.22e+06 M⁻¹ s⁻¹

B11: VHH72_h1(S56A) (VHH)
VHH: EVQLVESGGGLVQPGGSLRLSCAASGRTFSEYAMGWFRQAPGKEREFVATISWSGGATYYTDSVKGRFTISRDNAKNTVYLQMNSLRPEDTAVYYCAAAGLGTVVSEWDYDYDYWGQGTLVTVSS
binding result [6]: no binding (tested: about 20 µg/ml)

B12: parental VHH72-hIgG1 Fc (P. pastoris supernatant) (Fc fusion)
chain: QVQLQESGGGLVQAGGSLRLSCAASGRTFSEYAMGWFRQAPGKEREFVATISWSGGSTYYTDSVKGRFTISRDNAKNTVYLQMNSLKPDDTAVYYCAAAGLGTVVSEWDYDYDYWGQGTQVTVSS
Kd [10]: 0.0786 nM and 0.0765 nM
koff [10]: 0.000261 s⁻¹ and 0.000283 s⁻¹
kon [10]: 3.33e+06 M⁻¹ s⁻¹ and 3.7e+06 M⁻¹ s⁻¹

B13: VHH2.50 (VHH)
VHH: QVQLQESGGGLVQAGGSLRLSCAASGRTFSSIAMGWFRQAPGKEREFVATISWSGGSTYYADSVKGRFTISRDNAKNTVYLQMNSLKPEDTAVYYCAAAGLGTVVSEWDYDYDYWGQGTQVTVSS
% inhibition [3]: 79%
IC50 [3]: 34.2 nM

B14: VHH3.29 (VHH)
VHH: QVQLQESGGGLVQAGGSLRLSCVASGRTFSSGGMGWFRQAPGQEREFVAGIGWAGLSSYYLDSVKGRFTISLDNAKNTVYLQMNMLKPEDTGVYYCAADDHGWSAAGMDYLGQGTQVTVSS
binding result [6]: no binding (tested: about 20 µg/ml)
EC50 (read off the curve) [7]: ~0.03 µg/mL
% inhibition [3]: 97%
IC50 [3]: 1 nM

B15: D72-16: h1-VHH72-GS-hIgG1hinge-hIgG1Fc (Fc fusion)
chain: EVQLVESGGGLVQPGGSLRLSCAASGRTFSEYAMGWFRQAPGKEREFVATISWSGGSTYYTDSVKGRFTISRDNAKNTVYLQMNSLRPEDTAVYYCAAAGLGTVVSEWDYDYDYWGQGTLVTVSSGS
notes: ExpiCHO
Kd [8]: 0.102 nM
koff [8]: 0.000191 s⁻¹
kon [8]: 1.89e+06 M⁻¹ s⁻¹
EC50 [11]: 9.65 ng/mL
IC50, plaque reduction neutralization, authentic SARS-CoV-2 [9]: 0.94 µg/mL

B16: D72-02: VHH72-GS-hIgG1hinge-hIgG1Fc (Fc fusion)
chain: QVQLQESGGGLVQAGGSLRLSCAASGRTFSEYAMGWFRQAPGKEREFVATISWSGGSTYYTDSVKGRFTISRDNAKNTVYLQMNSLKPDDTAVYYCAAAGLGTVVSEWDYDYDYWGQGTQVTVSSGS
Kd [8]: 0.142 nM
koff [8]: 0.00026 s⁻¹
kon [8]: 1.83e+06 M⁻¹ s⁻¹
EC50 [11]: 6.95 ng/mL
IC50, plaque reduction neutralization, authentic SARS-CoV-2 [9]: 1.01 µg/mL

B17: VHH3.35 (VHH)
VHH: QVQLQESGGGLVQAGGSLTLSCEVSGRTNDNYGVGWFRQVPGAERELVAAIRWSSISRYYKDSVKGRFTISRDNAKNTVYLQMDMLKAEDTAVYYCAADPAGWSEFGMEYWGKGTQVTVSS
binding result [6]: no binding (tested: about 20 µg/ml)
EC50 (read off the curve) [7]: ~0.04 µg/mL
% inhibition [3]: 100%
IC50 [3]: 1.06 nM

B18: VHH3.55 (VHH)
VHH: QVQLQESGGGLVQAGGSLRLSCEVSGRTNDNYGVGWFRQVPGAERELVAAIRWSSISRYYKDSVKGRFTISRDNAKNTVYLQMDMLKPEDTAAYYCAADPAGWSEFGMEYWGKGTQVTVSS
concentration at which binding was just below saturation [1]: 10 ng/mL
EC50 (read off the curve) [2]: ~2 ng/mL
binding result [4]: no binding (tested: about 20 µg/ml)
EC50 (read off the curve) [5]: ~0.01 µg/mL
% inhibition [3]: 100%
IC50 [3]: 0.817 nM

B19: VHH3.47 (VHH)
VHH: QVQLQESGGGLVQAGDSLRLSCAASGHNFSTYAMAWFRQAPGTERELVAAISENDVMRYYADSVKGRFTISRDNAKNMAYLQMNSLKVEDTAVYLCAADPKGWSEWDMDYWGKGTQVTVSS
EC50 (read off the curve) [5]: ~0.03 µg/mL
% inhibition [3]: 100%
IC50 [3]: 0.729 nM

B20: VHH3.115 (VHH)
VHH: QVQLQESGGGLVQTGGSLRLSCAASGLTFSDIAMGWFRQAPGREREFVATISWSGGGTYYAEPVRGRFAISRDNAKNTVYLQMNSLKPEDTAVYYCAAAGAGTVVSEWDYDYDYWGQGTQVTVSS
binding result [4]: no binding (tested: about 20 µg/ml)
EC50 (read off the curve) [5]: ~0.006 µg/mL
% inhibition [3]: 100%
IC50 [3]: 1.08 nM
